# In US20100120681A1 (Ablynx, published 2010):
# T1: E. coli expressed VEGF109 (human, UniProt P15692 207-315)
# T1 construct: also called hVEGF109
# T1 sequence: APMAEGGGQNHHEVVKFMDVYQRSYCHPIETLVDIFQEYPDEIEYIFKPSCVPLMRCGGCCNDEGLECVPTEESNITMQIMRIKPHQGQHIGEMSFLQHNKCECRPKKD
# Experiments:
# [1] = target: T1, E. coli expressed VEGF109; assay: SPR Biacore 3000, periplasmic extract over VEGF109-coated CM5 chip
# Method: (§1) Analysis of the results was done using BIAevaluation software. Off-rates were determined by the ‘fit kinetics separate ka/kd’ model, langmuir dissociation. A time interval of ±100s was used for the fitting.
# hVEGF165 (R&D Systems) = target: T2, hVEGF165 (R&D Systems) (human, UniProt P15692 27-191); assay: SPR Biacore 3000, periplasmic extract over VEGF165-coated CM5 chip
# T2 construct: mature; also called biotinylated hVEGF165
# Method: as §1
# T2 sequence (P15692 other isoform, or with tags, fused parts or gaps): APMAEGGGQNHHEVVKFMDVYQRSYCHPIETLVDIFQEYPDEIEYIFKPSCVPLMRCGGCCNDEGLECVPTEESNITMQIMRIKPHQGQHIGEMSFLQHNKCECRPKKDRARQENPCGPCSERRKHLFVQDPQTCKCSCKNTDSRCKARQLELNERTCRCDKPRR
Binder,koff [1],koff (hVEGF165 (R&D Systems))
"PVEGFPMP42A5 (VHH, tested as periplasmic extract; not shown: C-terminal c-myc tag and (His)6 tag from the vector) VHH: EVQLVESGGGLVQAGGSLRLSCAASGRTFSGVDVAWFRQAPGKEREFVAALAWSGIRTYYAVSVKGRFTISRGDPNDTVYLQMTSLKPEDTAVYYCATGRASRTSDYYTDRIYDSWGQGAQVTVSS",0.00167 s⁻¹,0.00154 s⁻¹
"PVEGFPMP42C1 (VHH, tested as periplasmic extract; not shown: C-terminal c-myc tag and (His)6 tag from the vector) VHH: EVQLVESGGGLVQAGGSLRLSCAASGRTFSGVDVAWFRQAPGKEREFVAALAWSGIRTYYAVSVKGRFTISRGNPNDTVYLQMTSLKPEDTAVYYCATGRAYRGSDYYTDRIYDSWGQGAQVTVSS",0.00825 s⁻¹,0.00835 s⁻¹
"PVEGFPMP42A3 (VHH, tested as periplasmic extract; not shown: C-terminal c-myc tag and (His)6 tag from the vector) VHH: EVPMVESGGGLVQAGGSLRLSCAASGRTFSGVDVAWFRQAPGKEREFVAALAWSGIRTYYAVSVKGRFTISRGDPNDTVYLQMTSLKPEDTAVYYCATGRASRTSDYYTDRIYDSWGQGAQVTVSS",0.00284 s⁻¹,0.00259 s⁻¹
"PVEGFPMP42B10 (VHH, tested as periplasmic extract; not shown: C-terminal c-myc tag and (His)6 tag from the vector) VHH: EVQLVESGGGLVQAGGSLRLSCTASGRALDTYTVTWFRQTPGKEREFVASNRWNAKPYTTDSVKGRFTISRDNAKNTVYLQMNSLKPEDTAVYYCAADLTTWADGPYRYWGQGTQVTVSS",0.000227 s⁻¹,0.000362 s⁻¹
"PVEGFPMP42C5 (VHH, tested as periplasmic extract; not shown: C-terminal c-myc tag and (His)6 tag from the vector) VHH: KVQLVESGGGLVQAGGSLRLSCAASGRALDTYTVTWFRQTPGKEREFVASIRWNAKPYTTDSVKGRFTISRDNAKNTVYLQMNSLKPEDTAIYYCAADLTTWADGPYRYWGQGTQVTVSS",0.000448 s⁻¹,0.000641 s⁻¹
"PVEGFPMP42E3 (VHH, tested as periplasmic extract; not shown: C-terminal c-myc tag and (His)6 tag from the vector) VHH: EVQLVESGGGLVQAGGALRLSCAASGRTFETYRMGWFRQAPGKEREFVALINWSSGTTIYADSVKGRFTISGDNAKDTVYLEMNSLKPEDTAVYYCAVGRRWSGSYYSALAYQYWGQGTQVTVSS",0.000689 s⁻¹,0.0015 s⁻¹
"PVEGFPMP42C10 (VHH, tested as periplasmic extract; not shown: C-terminal c-myc tag and (His)6 tag from the vector) VHH: EVQLVESGGGLVQAGGALRLSCAVSGRTFESYRMGWFRQAPGKEREFVSLINWSSGKTIYADSVKGRFTISGDNAKDTVYLEMNSLKPEDTAVYYCAVGRAWSGSYYSALAYQYWGQGTQVTVSS",0.00753 s⁻¹,0.0168 s⁻¹
"PVEGFPMP42C7 (VHH, tested as periplasmic extract; not shown: C-terminal c-myc tag and (His)6 tag from the vector) VHH: EVQLVESGGGLVQAGGALRLSCAASGRTFETYRMGWFRQAPGKEREFVALINWSSGTTIYADSVKGRFTISGDNAKDTVYLEMNSLKPEDTAVYYCAVGRRWSGSYYSALAYQYWGKGTQVTVSS",0.00061 s⁻¹,0.00151 s⁻¹
"PVEGFPMP42D5 (VHH, tested as periplasmic extract; not shown: C-terminal c-myc tag and (His)6 tag from the vector) VHH: EVQLVESGGGLVHAGGALRLSCAASGRAFETYRMGWFRQAPGKEREFVALINWSSGTTVYADSVKGRFTISGDNAKDTVYLEMNSLKPEDTAVYYCAVGRRWSGSYYSALAYQYWGQGTQVTVSS",0.000368 s⁻¹,0.00147 s⁻¹

# The next lines start with the values.
koff [1],koff (hVEGF165 (R&D Systems)),Binder
0.00176 s⁻¹,0.00165 s⁻¹,"PVEGFPMP42F10 (VHH, tested as periplasmic extract; not shown: C-terminal c-myc tag and (His)6 tag from the vector) VHH: EVQLVESGGGLVQAGGSLRLSCAASGRTFSGVDVAWFRQATGKEREFVAALAWSGIRTYYAVSVKGRFTISRGDPNDTVYLQMTSLKPEDTAVYYCATGRASRTSDYYTDRIYDSWGQGAQVTVSS"
0.000251 s⁻¹,0.000447 s⁻¹,"PVEGFPMP42G5 (VHH, tested as periplasmic extract; not shown: C-terminal c-myc tag and (His)6 tag from the vector) VHH: EVHLVESGGGLVQAGGSLRLSCAASGRALDTYTVTWFRQTPGKTREFVASVRWNAKPYTTDSVKGRFTISRDNAKNTVYLQMNSLKPEDTAVYYCAADPTTWADGPYRYWGQGTQVTVSS"
0.000315 s⁻¹,0.000528 s⁻¹,"PVEGFPMP42H5 (VHH, tested as periplasmic extract; not shown: C-terminal c-myc tag and (His)6 tag from the vector) VHH: EVQLVESGGGLVQAGGSLRLSCTASGRALDTYTVTWFRQTPGKEREFVASNRWNAKPYVTDSVKGRFTISRDNAKNTVYLQMNSLKPEDTAVYYCAADLTTWADGPYRYWGQGTQVTVSS"
0.000134 s⁻¹,0.000311 s⁻¹,"PVEGFPMP42E2 (VHH, tested as periplasmic extract; not shown: C-terminal c-myc tag and (His)6 tag from the vector) VHH: EVQLVESGGGLVQAGGSLRLSCAASGRALDTYTVTWFRQTPGKGREFLASIRWNAKPYTTDSVKGRFTMSRDNAKNTVYLQMNSLRPEDTAVYYCAADPTTWADGPYRYWGQGTQVTVSS"
0.000278 s⁻¹,0.000501 s⁻¹,"PVEGFPMP42F1 (VHH, tested as periplasmic extract; not shown: C-terminal c-myc tag and (His)6 tag from the vector) VHH: EVQLVESGGGLVQPGGSLRLSCAASGRALDTYTVTWFRQTPGKTREFVASVRWNAKPYTTDSVKGRFTISRDNAKNTVYLQMNSLKPEDTAVYYCAADPTTWADGPYRYWGQGTQVTVSS"
0.000315 s⁻¹,0.00149 s⁻¹,"PVEGFPMP42H9 (VHH, tested as periplasmic extract; not shown: C-terminal c-myc tag and (His)6 tag from the vector) VHH: EVQLVESGGGLVQAGGALRLSCAASGRTFETYRMGWFRQAPGKEREFVALINWSSGTTVYADSVKGRFTISGDNAKDTVYLEMNSLKPEDTAVYYCAVGRRWSGSYYSALAYQYWGQGTQVTVSS"
0.00411 s⁻¹,0.00634 s⁻¹,"PVEGFPMP42D10 (VHH, tested as periplasmic extract; not shown: C-terminal c-myc tag and (His)6 tag from the vector) VHH: EVQLVESGGGLVQAGGALRLSCAASGRTFETYRMGWFRQAPGKEREFVALINWSSGITVYLDSVKGRFTISGDNAKDTVYLEMNSLKPEDTAVYYCAVGRAWSGSYYSALAYQYWGQGTQVTVSS"
0.00774 s⁻¹,0.02 s⁻¹,"PVEGFPMP42E4 (VHH, tested as periplasmic extract; not shown: C-terminal c-myc tag and (His)6 tag from the vector) VHH: EVQLMESGGGLVQAGGSLRLSCAVSGRTFESYRMGWFRQAPGKEREFVSLINWSSGKTIYADSVKGRFTISGDNAKDTVYLEMNSLKPEDTAVYYCAVGRAWSGSYYSALAYQYWGQGTQVTVSS"
0.000176 s⁻¹,0.00094 s⁻¹,"PVEGFPMP42D7 (VHH, tested as periplasmic extract; not shown: C-terminal c-myc tag and (His)6 tag from the vector) VHH: EVQLVESGGGLVQAGGALRPSCAASGRTFETYRMGWFRQAPGKEREFVALINWSSGTTVYADSVKGRFTISGDNAKDTVYLEMNSLKPEDTAVYYCAVGRRWSGSYYSALAYQYWGQGTQVTVSS"
